Laboratory results reported in article doi:10.1101/2021.11.02.466972.

Molecular target: T1, MBP-CahR (Pseudomonas putida KT2440) (UniProt Q88GQ3)
T1 sequence: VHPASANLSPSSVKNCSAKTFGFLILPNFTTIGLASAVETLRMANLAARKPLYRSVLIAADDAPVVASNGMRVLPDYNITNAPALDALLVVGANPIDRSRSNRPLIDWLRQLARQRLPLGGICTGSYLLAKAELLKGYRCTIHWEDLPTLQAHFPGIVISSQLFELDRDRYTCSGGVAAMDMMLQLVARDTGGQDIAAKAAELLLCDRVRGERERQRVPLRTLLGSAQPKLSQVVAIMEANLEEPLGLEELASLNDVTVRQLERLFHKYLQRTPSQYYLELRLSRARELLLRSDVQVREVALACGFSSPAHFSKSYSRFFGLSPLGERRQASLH
Assay: EMSA
Details: buffer, not given

For “GTTTGTCCGAGACTTTGTGGCCGCCTGGCAGAAGGTCATGGAGCTGGACCGCTTTGATCTGAAATAGCGTTGCCTGGCGGGGGGGGCGCGCTCAGCGCCCCCTTGGCCAGTGGTTATCCCGCCAATTCCAGGTCGGATAGATACAAAAGTGTCCTCGTCGGTTCTGTTGCAATGCTTCTCAGGCGGCCGGCCTGAACAGCGTGCTCACAACGACAAGGAACCCCGACCATGCAAATGCCCAAGACC (double strand) [creA promoter probe]”, the binding was “binds”.
